B1: GpH7-B3 variant K334_01G/GpL16-k0 (antibody, human IgG1, kappa)
heavy: not shown
light: DIVMTQSPLSLPVTPGEPASISCQASESLVHSNRNTYLHWYLQKPGQSPQLLIYKVSNRFSGVPDRFSGSGSGTDFTLKISRVEAEDVGVYYCSQNTHVPPTFGQGTKVEIERTVAAPSVFIFPPSDEQLKSGTASVVCLLNNFYPREAKVQWKVDNALQSGNSQESVTEQDSKDSTYSLSSTLTLSKADYEKHKVYACEVTHQGLSSPVTKSFNRGEC
notes: both H chains altered; also called Ho Ab K334_01G
B2: GpH7-B3 variant T335_10E/GpL16-k0 (antibody, human IgG1, kappa)
heavy: not shown
light: B1 light
notes: both H chains altered; also called Ho Ab T335_10E
B3: GpH7-B3 variant S337_09D/GpL16-k0 (antibody, human IgG1, kappa)
heavy: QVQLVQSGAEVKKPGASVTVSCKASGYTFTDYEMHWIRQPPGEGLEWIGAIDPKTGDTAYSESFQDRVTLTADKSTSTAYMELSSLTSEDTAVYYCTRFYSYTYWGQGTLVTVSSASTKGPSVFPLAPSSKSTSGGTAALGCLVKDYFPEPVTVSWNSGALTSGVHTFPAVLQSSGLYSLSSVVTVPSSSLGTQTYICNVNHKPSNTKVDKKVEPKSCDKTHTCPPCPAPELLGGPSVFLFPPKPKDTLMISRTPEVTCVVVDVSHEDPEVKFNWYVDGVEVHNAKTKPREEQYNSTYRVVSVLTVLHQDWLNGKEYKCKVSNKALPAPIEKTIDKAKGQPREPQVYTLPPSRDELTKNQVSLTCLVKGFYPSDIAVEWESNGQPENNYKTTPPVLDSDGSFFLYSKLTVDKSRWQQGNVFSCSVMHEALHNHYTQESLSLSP
light: B1 light
notes: both H chains altered; also called Ho Ab S337_09D
B4: GpH7-B3 variant S324_15Y/GpL16-k0 (antibody, human IgG1, kappa)
heavy: not shown
light: B1 light
notes: both H chains altered; also called Ho Ab S324_15Y
B5: GpH7-B3 variant H268_02A/GpL16-k0 (antibody, human IgG1, kappa)
heavy: not shown
light: B1 light
notes: both H chains altered; also called Ho Ab H268_02A
B6: GpH7-B3 variant V266_08L/GpL16-k0 (antibody, human IgG1, kappa)
heavy: not shown
light: B1 light
notes: both H chains altered; also called Ho Ab V266_08L
B7: GpH7-B3 variant S337_20W/GpL16-k0 (antibody, human IgG1, kappa)
heavy: not shown
light: B1 light
notes: both H chains altered; also called Ho Ab S337_20W
B8: GpH7-B3 variant T335_20W/GpL16-k0 (antibody, human IgG1, kappa)
heavy: not shown
light: B1 light
notes: both H chains altered; also called Ho Ab T335_20W
B9: GpH7-B3 variant S337_10E/GpL16-k0 (antibody, human IgG1, kappa)
heavy: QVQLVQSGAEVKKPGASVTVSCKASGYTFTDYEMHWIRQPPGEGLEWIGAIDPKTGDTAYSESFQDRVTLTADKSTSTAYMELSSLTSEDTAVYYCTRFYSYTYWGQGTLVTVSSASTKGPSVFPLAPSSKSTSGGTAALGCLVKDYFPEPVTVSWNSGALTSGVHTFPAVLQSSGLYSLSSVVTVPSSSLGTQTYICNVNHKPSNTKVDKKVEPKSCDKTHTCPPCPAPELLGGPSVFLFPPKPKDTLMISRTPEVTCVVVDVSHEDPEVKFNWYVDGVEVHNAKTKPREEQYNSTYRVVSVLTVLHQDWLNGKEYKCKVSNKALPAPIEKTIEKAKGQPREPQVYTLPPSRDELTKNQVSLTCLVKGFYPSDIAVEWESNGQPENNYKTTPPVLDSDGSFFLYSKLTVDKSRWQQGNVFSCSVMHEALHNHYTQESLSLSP
light: B1 light
notes: both H chains altered; also called Ho Ab S337_10E
B10: GpH7-B3 variant I336_03V/GpL16-k0 (antibody, human IgG1, kappa)
heavy: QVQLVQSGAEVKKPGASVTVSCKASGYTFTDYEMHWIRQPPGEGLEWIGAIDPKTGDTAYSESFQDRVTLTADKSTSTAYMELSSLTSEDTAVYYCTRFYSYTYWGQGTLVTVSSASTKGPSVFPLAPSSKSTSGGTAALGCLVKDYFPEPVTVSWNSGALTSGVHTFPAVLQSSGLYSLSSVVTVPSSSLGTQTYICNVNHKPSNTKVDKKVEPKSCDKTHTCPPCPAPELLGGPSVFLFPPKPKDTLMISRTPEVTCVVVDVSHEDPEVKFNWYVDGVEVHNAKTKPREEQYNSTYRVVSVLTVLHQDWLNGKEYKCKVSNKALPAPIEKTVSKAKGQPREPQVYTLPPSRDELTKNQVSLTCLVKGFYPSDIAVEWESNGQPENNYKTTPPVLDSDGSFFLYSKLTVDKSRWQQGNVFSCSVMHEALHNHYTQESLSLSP
light: B1 light
notes: both H chains altered; also called Ho Ab I336_03V
B11: GpH7-B3 variant S298_14T/GpL16-k0 (antibody, human IgG1, kappa)
heavy: not shown
light: B1 light
notes: both H chains altered; also called Ho Ab S298_14T
B12: GpH7-B3 variant Q295_14T/GpL16-k0 (antibody, human IgG1, kappa)
heavy: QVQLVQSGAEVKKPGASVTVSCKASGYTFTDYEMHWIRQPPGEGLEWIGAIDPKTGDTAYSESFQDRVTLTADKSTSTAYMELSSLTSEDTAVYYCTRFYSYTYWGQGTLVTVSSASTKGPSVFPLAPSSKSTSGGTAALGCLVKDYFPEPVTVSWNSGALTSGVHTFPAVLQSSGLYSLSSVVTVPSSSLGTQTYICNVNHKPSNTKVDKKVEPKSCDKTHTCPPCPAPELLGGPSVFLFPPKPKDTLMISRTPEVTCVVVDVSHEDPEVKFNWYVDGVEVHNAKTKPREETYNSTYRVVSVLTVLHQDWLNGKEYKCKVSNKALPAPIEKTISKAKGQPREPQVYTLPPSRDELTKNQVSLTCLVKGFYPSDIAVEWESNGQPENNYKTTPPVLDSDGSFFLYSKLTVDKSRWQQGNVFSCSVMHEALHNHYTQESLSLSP
light: B1 light
notes: both H chains altered; also called Ho Ab Q295_14T
B13: GpH7-B3 variant T335_16H/GpL16-k0 (antibody, human IgG1, kappa)
heavy: not shown
light: B1 light
notes: both H chains altered; also called Ho Ab T335_16H
B14: GpH7-B3 variant K326_07I/GpL16-k0 (antibody, human IgG1, kappa)
heavy: not shown
light: B1 light
notes: both H chains altered; also called Ho Ab K326_07I
B15: GpH7-B3 variant S324_16H/GpL16-k0 (antibody, human IgG1, kappa)
heavy: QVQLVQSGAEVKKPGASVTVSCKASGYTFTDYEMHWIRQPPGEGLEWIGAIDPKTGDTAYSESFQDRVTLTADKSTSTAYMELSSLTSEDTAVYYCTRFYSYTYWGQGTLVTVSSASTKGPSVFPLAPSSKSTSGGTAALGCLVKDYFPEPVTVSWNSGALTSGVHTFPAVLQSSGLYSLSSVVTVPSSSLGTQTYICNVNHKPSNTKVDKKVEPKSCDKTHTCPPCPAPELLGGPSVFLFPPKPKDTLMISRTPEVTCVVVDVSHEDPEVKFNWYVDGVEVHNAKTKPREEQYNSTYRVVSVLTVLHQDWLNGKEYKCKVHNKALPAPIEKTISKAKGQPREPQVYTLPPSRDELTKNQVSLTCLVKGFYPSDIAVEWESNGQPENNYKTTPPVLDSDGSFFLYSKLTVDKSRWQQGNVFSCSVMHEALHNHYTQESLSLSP
light: B1 light
notes: both H chains altered; also called Ho Ab S324_16H
B16: GpH7-B3 variant T335_13S/GpL16-k0 (antibody, human IgG1, kappa)
heavy: not shown
light: B1 light
notes: both H chains altered; also called Ho Ab T335_13S
B17: GpH7-B3 variant K334_09D/GpL16-k0 (antibody, human IgG1, kappa)
heavy: not shown
light: B1 light
notes: both H chains altered; also called Ho Ab K334_09D
B18: GpH7-B3 variant T335_19Q/GpL16-k0 (antibody, human IgG1, kappa)
heavy: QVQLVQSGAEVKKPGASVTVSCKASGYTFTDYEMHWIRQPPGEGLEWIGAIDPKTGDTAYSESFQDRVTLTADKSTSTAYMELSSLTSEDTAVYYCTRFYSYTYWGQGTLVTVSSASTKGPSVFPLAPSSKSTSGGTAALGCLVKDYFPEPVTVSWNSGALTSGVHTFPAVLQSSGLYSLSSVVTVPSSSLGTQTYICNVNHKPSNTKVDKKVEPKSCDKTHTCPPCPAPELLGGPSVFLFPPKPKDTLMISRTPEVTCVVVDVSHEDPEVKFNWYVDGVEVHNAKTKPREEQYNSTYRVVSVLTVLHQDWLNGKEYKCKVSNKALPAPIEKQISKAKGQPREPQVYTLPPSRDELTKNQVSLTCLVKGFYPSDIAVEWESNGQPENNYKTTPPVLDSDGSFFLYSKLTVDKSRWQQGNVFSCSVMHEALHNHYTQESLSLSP
light: B1 light
notes: both H chains altered; also called Ho Ab T335_19Q
B19: GpH7-B3 variant I332_01G/GpL16-k0 (antibody, human IgG1, kappa)
heavy: not shown
light: B1 light
notes: both H chains altered; also called Ho Ab I332_01G
B20: GpH7-B3 variant I336_02A/GpL16-k0 (antibody, human IgG1, kappa)
heavy: not shown
light: B1 light
notes: both H chains altered; also called Ho Ab I336_02A
B21: GpH7-B3 variant E333_09D/GpL16-k0 (antibody, human IgG1, kappa)
heavy: not shown
light: B1 light
notes: both H chains altered; also called Ho Ab E333_09D
B22: GpH7-B3 variant S267_02A/GpL16-k0 (antibody, human IgG1, kappa)
heavy: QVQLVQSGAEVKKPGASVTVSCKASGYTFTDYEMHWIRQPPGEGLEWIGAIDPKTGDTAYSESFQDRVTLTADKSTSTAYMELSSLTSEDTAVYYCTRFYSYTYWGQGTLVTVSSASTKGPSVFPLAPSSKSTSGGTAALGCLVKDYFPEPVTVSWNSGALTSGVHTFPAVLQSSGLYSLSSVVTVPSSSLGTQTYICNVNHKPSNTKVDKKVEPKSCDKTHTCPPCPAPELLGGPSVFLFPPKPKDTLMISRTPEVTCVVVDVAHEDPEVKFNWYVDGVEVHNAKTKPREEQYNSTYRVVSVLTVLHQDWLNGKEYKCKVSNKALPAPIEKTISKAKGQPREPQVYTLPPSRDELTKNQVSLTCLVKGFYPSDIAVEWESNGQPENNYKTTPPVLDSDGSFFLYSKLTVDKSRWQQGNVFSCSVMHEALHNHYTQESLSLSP
light: B1 light
notes: both H chains altered; also called Ho Ab S267_02A
B23: GpH7-B3 variant S337_15Y/GpL16-k0 (antibody, human IgG1, kappa)
heavy: not shown
light: B1 light
notes: both H chains altered; also called Ho Ab S337_15Y
B24: GpH7-B3 variant I336_18N/GpL16-k0 (antibody, human IgG1, kappa)
heavy: not shown
light: B1 light
notes: both H chains altered; also called Ho Ab I336_18N
B25: GpH7-B3 variant I336_06M/GpL16-k0 (antibody, human IgG1, kappa)
heavy: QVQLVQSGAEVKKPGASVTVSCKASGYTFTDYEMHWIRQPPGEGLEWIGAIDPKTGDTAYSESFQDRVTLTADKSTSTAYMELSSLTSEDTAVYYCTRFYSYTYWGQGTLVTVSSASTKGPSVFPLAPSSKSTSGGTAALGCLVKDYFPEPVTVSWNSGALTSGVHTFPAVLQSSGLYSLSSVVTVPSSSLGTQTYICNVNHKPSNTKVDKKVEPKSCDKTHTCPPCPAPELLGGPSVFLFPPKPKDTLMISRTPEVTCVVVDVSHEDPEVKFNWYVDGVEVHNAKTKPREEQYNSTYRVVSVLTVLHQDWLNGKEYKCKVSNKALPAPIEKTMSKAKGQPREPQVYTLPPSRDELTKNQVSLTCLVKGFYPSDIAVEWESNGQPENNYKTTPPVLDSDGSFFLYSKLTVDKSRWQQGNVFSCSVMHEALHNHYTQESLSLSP
light: B1 light
notes: both H chains altered; also called Ho Ab I336_06M
B26: GpH7-B3 variant T335_15Y/GpL16-k0 (antibody, human IgG1, kappa)
heavy: not shown
light: B1 light
notes: both H chains altered; also called Ho Ab T335_15Y
B27: GpH7-B3 variant K326_08L/GpL16-k0 (antibody, human IgG1, kappa)
heavy: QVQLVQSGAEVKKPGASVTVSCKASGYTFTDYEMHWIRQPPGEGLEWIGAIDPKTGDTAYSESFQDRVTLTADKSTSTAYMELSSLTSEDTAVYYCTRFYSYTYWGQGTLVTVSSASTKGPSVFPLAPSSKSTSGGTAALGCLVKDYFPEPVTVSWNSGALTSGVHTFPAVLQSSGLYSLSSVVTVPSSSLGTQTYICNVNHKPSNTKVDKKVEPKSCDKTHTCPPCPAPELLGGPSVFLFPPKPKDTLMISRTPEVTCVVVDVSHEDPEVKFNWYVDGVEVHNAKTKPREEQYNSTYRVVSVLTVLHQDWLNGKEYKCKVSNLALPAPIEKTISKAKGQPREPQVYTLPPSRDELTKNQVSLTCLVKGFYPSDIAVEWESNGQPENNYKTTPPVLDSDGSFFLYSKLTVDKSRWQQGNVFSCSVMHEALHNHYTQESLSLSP
light: B1 light
notes: both H chains altered; also called Ho Ab K326_08L
B28: GpH7-B3 variant S267_09D/GpL16-k0 (antibody, human IgG1, kappa)
heavy: not shown
light: B1 light
notes: both H chains altered; also called Ho Ab S267_09D
B29: GpH7-B3 variant T335_07I/GpL16-k0 (antibody, human IgG1, kappa)
heavy: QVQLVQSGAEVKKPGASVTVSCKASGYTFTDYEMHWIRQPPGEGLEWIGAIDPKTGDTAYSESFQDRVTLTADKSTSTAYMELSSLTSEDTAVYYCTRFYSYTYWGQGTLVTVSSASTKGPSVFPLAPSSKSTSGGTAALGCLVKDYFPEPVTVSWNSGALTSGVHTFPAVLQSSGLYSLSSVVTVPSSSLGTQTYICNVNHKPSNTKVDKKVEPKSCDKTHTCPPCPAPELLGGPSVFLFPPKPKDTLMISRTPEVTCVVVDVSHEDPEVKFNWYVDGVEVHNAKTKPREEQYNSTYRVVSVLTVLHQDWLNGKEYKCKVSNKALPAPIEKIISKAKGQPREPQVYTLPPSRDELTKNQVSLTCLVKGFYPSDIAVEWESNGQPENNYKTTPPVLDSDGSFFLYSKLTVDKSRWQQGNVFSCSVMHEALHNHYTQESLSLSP
light: B1 light
notes: both H chains altered; also called Ho Ab T335_07I
B30: GpH7-B3 variant S337_18N/GpL16-k0 (antibody, human IgG1, kappa)
heavy: not shown
light: B1 light
notes: both H chains altered; also called Ho Ab S337_18N
B31: GpH7-A5/GpH7-B3 variant A330_05P/GpL16-k0 (antibody, human IgG1, kappa)
heavy 1: not shown
heavy 2: not shown
light: B1 light
notes: one H chain altered; also called He Ab A330_05P
B32: GpH7-A5/GpH7-B3 variant E333_20W/GpL16-k0 (antibody, human IgG1, kappa)
heavy 1: not shown
heavy 2: not shown
light: B1 light
notes: one H chain altered; also called He Ab E333_20W
B33: GpH7-A5/GpH7-B3 variant T335_20W/GpL16-k0 (antibody, human IgG1, kappa)
heavy 1: not shown
heavy 2: not shown
light: B1 light
notes: one H chain altered; also called He Ab T335_20W
B34: GpH7-A5/GpH7-B3 variant I332_06M/GpL16-k0 (antibody, human IgG1, kappa)
heavy 1: not shown
heavy 2: not shown
light: B1 light
notes: one H chain altered; also called He Ab I332_06M
B35: GpH7-A5/GpH7-B3 variant E333_04F/GpL16-k0 (antibody, human IgG1, kappa)
heavy 1: not shown
heavy 2: not shown
light: B1 light
notes: one H chain altered; also called He Ab E333_04F
B36: GpH7-A5/GpH7-B3 variant E333_02A/GpL16-k0 (antibody, human IgG1, kappa)
heavy 1: not shown
heavy 2: not shown
light: B1 light
notes: one H chain altered; also called He Ab E333_02A
B37: GpH7-A5/GpH7-B3 variant P271_01G/GpL16-k0 (antibody, human IgG1, kappa)
heavy 1: not shown
heavy 2: not shown
light: B1 light
notes: one H chain altered; also called He Ab P271_01G
B38: GpH7-A5/GpH7-B3 variant G236_15Y/GpL16-k0 (antibody, human IgG1, kappa)
heavy 1: not shown
heavy 2: not shown
light: B1 light
notes: one H chain altered; also called He Ab G236_15Y
B39: GpH7-A5/GpH7-B3 variant S324_02A/GpL16-k0 (antibody, human IgG1, kappa)
heavy 1: not shown
heavy 2: not shown
light: B1 light
notes: one H chain altered; also called He Ab S324_02A
B40: GpH7-A5/GpH7-B3 variant T335_15Y/GpL16-k0 (antibody, human IgG1, kappa)
heavy 1: not shown
heavy 2: not shown
light: B1 light
notes: one H chain altered; also called He Ab T335_15Y
B41: GpH7-A5/GpH7-B3 variant A330_07I/GpL16-k0 (antibody, human IgG1, kappa)
heavy 1: not shown
heavy 2: not shown
light: B1 light
notes: one H chain altered; also called He Ab A330_07I
B42: GpH7-A5/GpH7-B3 variant P238_10E/GpL16-k0 (antibody, human IgG1, kappa)
heavy 1: not shown
heavy 2: not shown
light: B1 light
notes: one H chain altered; also called He Ab P238_10E
B43: GpH7-A5/GpH7-B3 variant T335_13S/GpL16-k0 (antibody, human IgG1, kappa)
heavy 1: not shown
heavy 2: not shown
light: B1 light
notes: one H chain altered; also called He Ab T335_13S
B44: GpH7-A5/GpH7-B3 variant E333_09D/GpL16-k0 (antibody, human IgG1, kappa)
heavy 1: not shown
heavy 2: not shown
light: B1 light
notes: one H chain altered; also called He Ab E333_09D
B45: GpH7-A5/GpH7-B3 variant S337_14T/GpL16-k0 (antibody, human IgG1, kappa)
heavy 1: not shown
heavy 2: not shown
light: B1 light
notes: one H chain altered; also called He Ab S337_14T
B46: GpH7-A5/GpH7-B3 variant V266_08L/GpL16-k0 (antibody, human IgG1, kappa)
heavy 1: not shown
heavy 2: not shown
light: B1 light
notes: one H chain altered; also called He Ab V266_08L
B47: GpH7-A5/GpH7-B3 variant I336_08L/GpL16-k0 (antibody, human IgG1, kappa)
heavy 1: not shown
heavy 2: not shown
light: B1 light
notes: one H chain altered; also called He Ab I336_08L
B48: GpH7-A5/GpH7-B3 variant S337_04F/GpL16-k0 (antibody, human IgG1, kappa)
heavy 1: not shown
heavy 2: not shown
light: B1 light
notes: one H chain altered; also called He Ab S337_04F
B49: GpH7-A5/GpH7-B3 variant H268_18N/GpL16-k0 (antibody, human IgG1, kappa)
heavy 1: not shown
heavy 2: not shown
light: B1 light
notes: one H chain altered; also called He Ab H268_18N
B50: GpH7-A5/GpH7-B3 variant E333_03V/GpL16-k0 (antibody, human IgG1, kappa)
heavy 1: not shown
heavy 2: not shown
light: B1 light
notes: one H chain altered; also called He Ab E333_03V
B51: GpH7-A5/GpH7-B3 variant P238_09D/GpL16-k0 (antibody, human IgG1, kappa)
heavy 1: not shown
heavy 2: not shown
light: B1 light
notes: one H chain altered; also called He Ab P238_09D
B52: GpH7-A5/GpH7-B3 variant L234_07I/GpL16-k0 (antibody, human IgG1, kappa)
heavy 1: not shown
heavy 2: not shown
light: B1 light
notes: one H chain altered; also called He Ab L234_07I
B53: GpH7-A5/GpH7-B3 variant L234_04F/GpL16-k0 (antibody, human IgG1, kappa)
heavy 1: not shown
heavy 2: not shown
light: B1 light
notes: one H chain altered; also called He Ab L234_04F
B54: GpH7-A5/GpH7-B3 variant L234_20W/GpL16-k0 (antibody, human IgG1, kappa)
heavy 1: not shown
heavy 2: not shown
light: B1 light
notes: one H chain altered; also called He Ab L234_20W
B55: GpH7-A5/GpH7-B3 variant L234_09D/GpL16-k0 (antibody, human IgG1, kappa)
heavy 1: not shown
heavy 2: not shown
light: B1 light
notes: one H chain altered; also called He Ab L234_09D
B56: GpH7-A5/GpH7-B3 variant S337_15Y/GpL16-k0 (antibody, human IgG1, kappa)
heavy 1: not shown
heavy 2: not shown
light: B1 light
notes: one H chain altered; also called He Ab S337_15Y
B57: GpH7-A5/GpH7-B3 variant E333_13S/GpL16-k0 (antibody, human IgG1, kappa)
heavy 1: not shown
heavy 2: not shown
light: B1 light
notes: one H chain altered; also called He Ab E333_13S
B58: GpH7-A5/GpH7-B3 variant T335_19Q/GpL16-k0 (antibody, human IgG1, kappa)
heavy 1: not shown
heavy 2: not shown
light: B1 light
notes: one H chain altered; also called He Ab T335_19Q
B59: GpH7-A5/GpH7-B3 variant T335_16H/GpL16-k0 (antibody, human IgG1, kappa)
heavy 1: not shown
heavy 2: not shown
light: B1 light
notes: one H chain altered; also called He Ab T335_16H
B60: GpH7-A5/GpH7-B3 variant S337_20W/GpL16-k0 (antibody, human IgG1, kappa)
heavy 1: not shown
heavy 2: not shown
light: B1 light
notes: one H chain altered; also called He Ab S337_20W

What follows are binders tested against T1, FcγRIIIa extracellular domain with C-terminal His tag (human, UniProt P08637 17-208) (assay: SPR (Biacore), both H chains altered; HoCon Ab GpH7-B3/GpL16-k0 = 100).
T1 sequence (P08637 17-208): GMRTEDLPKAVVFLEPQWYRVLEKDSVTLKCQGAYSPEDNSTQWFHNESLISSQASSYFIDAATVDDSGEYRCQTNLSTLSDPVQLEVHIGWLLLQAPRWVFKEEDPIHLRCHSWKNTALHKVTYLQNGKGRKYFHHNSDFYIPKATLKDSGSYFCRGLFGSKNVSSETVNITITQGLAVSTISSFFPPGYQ

Ho/Con_3a	Binder
104%	B1
102%	B2
106%	B3
100%	B4
118%	B5
90.5%	B6
87.8%	B7
91.8%	B8
100%	B9
110%	B10
107%	B11
108%	B12
99.5%	B13
134%	B14
103%	B15
97.6%	B16
150%	B17
97.7%	B18
104%	B19
104%	B20
109%	B21
145%	B22
99%	B23
101%	B24
107%	B25
91.5%	B26
114%	B27
160%	B28
107%	B29
102%	B30

Each binder was assayed against T1, FcγRIIIa extracellular domain with … (assay: SPR (Biacore), one H chain altered; HeCon Ab GpH7-A5/GpH7-B3/GpL16-k0 = 100).

He/Con_3a	Binder
155%	B31
101%	B32
102%	B33
101%	B34
101%	B35
105%	B36
113%	B37
121%	B38
104%	B39
104%	B40
103%	B41
105%	B42
105%	B43
112%	B44
101%	B45
118%	B46
106%	B47
101%	B48
104%	B49
103%	B50
106%	B51
103%	B52
118%	B53
107%	B54
117%	B55
102%	B56
103%	B57
102%	B58
104%	B59
101%	B60

From patent US20150344570A1 (published 2015)
